Series [1] has as its target 3-hydroxypropionyl-CoA dehydratase from Sulfolobus tokodaii, SEQ ID NO: 3 (Uniprot F9VNG3) (Sulfurisphaera tokodaii, UniProt F9VNG3). The series can be described thus: Kinetic parameters of the dehydration of 4-hydroxy-2-butanone to 3-buten-2-one. The series is classed as biochemical. Particulars: 0-300 mM 4-hydroxy-2-butanone, 20 mM MgCl2, pH 7.5, 37° C. Here is the method:
Each assay was started with the addition of a specific enzyme at a final concentration of 4 mg/ml. Control assays were performed in which either no enzyme was added, or no substrate was added. Test tubes were incubated for 23 hours with shaking at 37° C. Reaction products were extracted with an equal volume of ethyl acetate and then analyzed by HPLC. Commercial 3-buten-2-one (Sigma) was used as reference. […] The mobile phase consisted of 98:2 (v/v) H2O/Acetonitrile containing 8.4 mM sulfuric acid. Retention time of 3-buten-2-one under these conditions was 5.4 min.
Kinetic parameters of the reaction were determined for purified recombinant 3-hydroxypropionyl-CoA dehydratase from Sulfolobus tokodaii under the following conditions:
4 mg/ml 3-Hydroxypropionyl-CoA dehydratase S. tokodaii
Test tubes were incubated for 0, 20, 60, 120 and 180 min with shaking at 37° C. The formation of 3-buten-2-one was quantified using commercial 3-buten-2-one according to the procedure described in Example 4.

For series [2], the target named is T1, Secondary alcohol dehydrogenase from Rhodococcus ruber, SEQ ID NO: 12 (Uniprot Q8KLT9) (Rhodococcus ruber, UniProt Q8KLT9).
T1 sequence (Q8KLT9 1-346): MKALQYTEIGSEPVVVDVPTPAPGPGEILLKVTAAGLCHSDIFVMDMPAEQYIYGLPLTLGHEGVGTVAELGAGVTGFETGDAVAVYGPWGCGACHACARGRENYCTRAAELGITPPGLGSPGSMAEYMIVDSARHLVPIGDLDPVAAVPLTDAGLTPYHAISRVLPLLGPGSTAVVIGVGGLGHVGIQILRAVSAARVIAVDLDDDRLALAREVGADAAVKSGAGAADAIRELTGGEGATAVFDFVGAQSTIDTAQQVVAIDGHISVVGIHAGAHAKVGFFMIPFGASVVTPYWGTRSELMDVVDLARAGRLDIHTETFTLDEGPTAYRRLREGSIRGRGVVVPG
The series can be described thus: Kinetic parameters of the reduction of 3-buten-2-one to 3-buten-2-ol. It counts as biochemical. The settings on record: 0-40 mM 3-buten-2-one, 40 mM NADPH, pH 7.5, 37° C. The protocol: (§1) The assays were incubated for various time periods (0, 20, 40, 60 120 and 240 min) with shaking at 37° C. […] The reaction products were then extracted with an equal volume of ethyl acetate. 150 μl of the upper ethyl acetate phase was transferred into a clean vial for HPLC analysis. Commercial 3-buten-2-ol (Sigma) was used as reference. […] The mobile phase consisted of 98:2 (v/v) H2O/acetonitrile containing 8.4 mM sulfuric acid. Retention time of 3-buten-2-ol and 3-buten-2-one under these conditions was 3.9 and 5.4 min, respectively.
(§2) The studied enzymatic reaction was carried out under the following conditions at 37° C.:
1 mg/ml alcohol dehydrogenase from R. ruber.
(§3) Reaction volume was 200 μl.
(§4) The assays were incubated for 0, 10, 20, 40, 60 and 120 min with shaking at 37° C. The formation of 3-buten-2-ol was quantified according to the protocol described in Example 8.

In series [3] the target is linalool dehydratase-isomerase from Castellaniella defragrans (formerly Alcaligenes defragrans), SEQ ID NO: 19 (Castellaniella defragrans, UniProt E1XUJ2). Briefly: 1,3-butadiene production from 3-buten-2-ol (GC/FID). It counts as biochemical. Particulars: 0-80 mM 3-buten-2-ol, cell lysate with recombinant enzyme, 2 mM DTT, pH 7.5, 37° C, 1-22 hours. The source says: The sequence of linalool dehydratase-isomerase inferred from the genome of Castellaniella defragrans (formerly Alcaligenes defragrans) was generated by oligonucleotide concatenation to fit the codon usage of E. coli. A stretch of 6 histidine codons was inserted after the methionine initiation codon to provide an affinity tag for purification. The gene thus synthesized was cloned in a pET25b(+) expression vector (the vector was constructed by GeneArt AG). Competent E. coli BL21(DE3) cells (Novagen) were transformed with this vector according to the heat shock procedure. As negative control, E. coli BL21(DE3) strain was transformed with empty vector. The transformed cells were grown with shaking (160 rpm) on ZYM-5052 auto-induction medium (Studier F W, Prot. Exp. Pur. 41 (2005), 207-234) for 6 hours at 37° C. and protein expression was continued at 18° C. overnight (approximately 12 hours). The cells were collected by centrifugation at 4° C., 10,000 rpm for 20 min and the pellets were frozen at −80° C.
Chain of linalool dehydratase-isomerase from Castellaniella defragrans (formerly Alcaligenes defragrans), SEQ ID NO: 19 (E1XUJ2 27-397): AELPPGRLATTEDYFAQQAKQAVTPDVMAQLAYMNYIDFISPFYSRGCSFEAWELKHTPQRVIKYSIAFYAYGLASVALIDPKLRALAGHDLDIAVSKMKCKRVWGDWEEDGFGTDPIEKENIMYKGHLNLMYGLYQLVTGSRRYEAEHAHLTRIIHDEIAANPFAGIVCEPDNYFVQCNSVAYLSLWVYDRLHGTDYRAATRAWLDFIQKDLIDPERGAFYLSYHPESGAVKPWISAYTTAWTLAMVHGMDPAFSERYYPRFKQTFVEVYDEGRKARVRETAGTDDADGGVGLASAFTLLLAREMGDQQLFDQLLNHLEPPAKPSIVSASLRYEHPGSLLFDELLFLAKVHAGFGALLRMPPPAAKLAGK
The pellets from 100 ml of culture cells were thawed on ice and resuspended in 4 ml of 50 mM Tris-HCl pH 7.5. […] Protein concentration was determined using the Bradford method (Biorad). […]
0.25 ml of cell lysate containing recombinant linalool dehydratase-isomerase was added to 0.5 ml of reaction mixture. […] 1,3-butadiene production was analyzed by GC/FID procedure. […]

Substrate in series [4]: C=CC(C)=O
Briefly: Kinetic parameters of the reduction of 3-buten-2-one to 3-buten-2-ol. The series is classed as biochemical, Lactobacillus kefiri. Particulars: other: 0-40 mM 3-buten-2-one, 40 mM NADPH, pH 7.5, 37° C. Here is the method: as §1, §2
1 mg/ml alcohol dehydrogenase from L. kefiri.
as §3, §4

Substrate in series [5]: C=CC(C)=O
The series can be described thus: Enzyme-catalyzed reduction of 3-buten-2-one to 3-buten-2-ol, HPLC-based. It counts as biochemical, Thermoanaerobium brockii. Particulars: other: 0-40 mM 3-buten-2-one, 40 mM NADPH, 0.1 mM ZnCl2, pH 7.5, 37° C. Here is the method:
as §2
1 mg/ml alcohol dehydrogenase from Th. brockii
as §3, §1

Substrate in series [6]: CC(=O)CC(=O)SCCNC(=O)CCNC(=O)[C@H](O)C(C)(C)COP(=O)(O)OP(=O)(O)OC[C@H]1O[C@@H](n2cnc3c(N)ncnc32)[C@H](O)[C@@H]1OP(=O)(O)O
The series can be described thus: purified protein, by the assay type. Particulars: other: acetoacetyl-CoA variable (0-32 mM), NADPH 60 mM, pH 7.5, 37° C.

One may read the kcat as the maximal rate divided by the concentration of active sites. By Km is commonly meant the substrate concentration at which the rate is half of its maximum.

Chain of 3-hydroxypropionyl-CoA dehydratase from Sulfolobus tokodaii, SEQ ID NO: 3 (Uniprot F9VNG3) (F9VNG3 1-257): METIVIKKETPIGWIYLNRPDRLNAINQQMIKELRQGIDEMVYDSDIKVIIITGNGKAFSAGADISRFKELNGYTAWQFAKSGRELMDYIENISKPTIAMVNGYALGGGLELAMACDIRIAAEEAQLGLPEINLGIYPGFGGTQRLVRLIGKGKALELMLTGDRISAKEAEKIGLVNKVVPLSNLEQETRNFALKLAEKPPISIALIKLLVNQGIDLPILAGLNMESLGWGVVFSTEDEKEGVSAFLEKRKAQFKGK

Turning to `CC(=O)CCO` [4-hydroxy-2-butanone], in series [1], the kcat stood at 0.0075 s⁻¹.
Turning to `C=CC(C)=O` [3-buten-2-one], the kcat entry in series [2] is “at least 0.03 s^−1”.
Regarding `C=CC(C)O` (centres unmarked) [3-buten-2-ol], the turnover number result in series [3] is “about 10^−4 s^−1 substrate molecule per enzyme active site”.

B1: R-specific alcohol dehydrogenase from Lactobacillus kefiri, SEQ ID NO: 17 (Uniprot Q6WVP7) (Lentilactobacillus kefiri) (protein)
chain: MTDRLKGKVAIVTGGTLGIGLAIADKFVEEGAKVVITGRHADVGEKAAKSIGGTDVIRFVQHDASDEAGWTKLFDTTEEAFGPVTTVVNNAGIAVSKSVEDTTTEEWRKLLSVNLDGVFFGTRLGIQRMKNKGLGASIINMSSIEGFVGDPTLGAYNASKGAVRIMSKSAALDCALKDYDVRVNTVHPGYIKTPLVDDLEGAEEMMSQRTKTPMGHIGEPNDIAWICVYLASDESKFATGAEFVVDGGYTAQ
Regarding B1, in series [4], the Km was 19 mM and the kcat is 4 s⁻¹.

B2: Alcohol dehydrogenase from Thermoanaerobacter brockii (Thermoanaerobium brockii), SEQ ID NO: 13 (Uniprot P14941) (Thermoanaerobacter brockii) (protein)
chain: MKGFAMLSIGKVGWIEKEKPAPGPFDAIVRPLAVAPCTSDIHTVFEGAIGERHNMILGHEAVGEVVEVGSEVKDFKPGDRVVVPAITPDWRTSEVQRGYHQHSGGMLAGWKFSNVKDGVFGEFFHVNDADMNLAHLPKEIPLEAAVMIPDMMTTGFHGAELADIELGATVAVLGIGPVGLMAVAGAKLRGAGRIIAVGSRPVCVDAAKYYGATDIVNYKDGPIESQIMNLTEGKGVDAAIIAGGNADIMATAVKIVKPGGTIANVNYFGEGEVLPVPRLEWGCGMAHKTIKGGLCPGGRLRMERLIDLVFYKRVDPSKLVTHVFRGFDNIEKAFMLMKDKPKDLIKPVVILA
As for B2, in series [5], the Km is 100 mM and the kcat stood at 0.5 s⁻¹.

B3: Short-chain dehydrogenase/reductase (Fatty alcohol forming acyl-CoA reductase) from Marinobacter aquaeolei VT8, SEQ ID NO: 7 (Uniprot A1U3L3) (Marinobacter … (protein)
chain: MNYFLTGGTGFIGRFLVEKLLARGGTVYVLVREQSQDKLERLRERWGADDKQVKAVIGDLTSKNLGIDAKTLKSLKGNIDHVFHLAAVYDMGADEEAQAATNIEGTRAAVQAAEAMGAKHFHHVSSIAAAGLFKGIFREDMFEEAEKLDHPYLRTKHESEKVVREECKVPFRIYRPGMVIGHSETGEMDKVDGPYYFFKMIQKIRHALPQWVPTIGIEGGRLNIVPVDFVVDALDHIAHLEGEDGNCFHLVDSDPYKVGEILNIFCEAGHAPRMGMRIDSRMFGFIPPFIRQSIKNLPPVKRITGALLDDMGIPPSVMSFINYPTRFDTRELERVLKGTDIEVPRLPSYAPVIWDYWERNLDPDLFKDRTLKGTVEGKVCVVTGATSGIGLATAEKLAEAGAILVIGARTKETLDEVAASLEAKGGNVHAYQCDFSDMDDCDRFVKTVLDNHGHVDVLVNNAGRSIRRSLALSFDRFHDFERTMQLNYFGSVRLIMGFAPAMLERRRGHVVNISSIGVLTNAPRFSAYVSSKSALDAFSRCAAAEWSDRNVTFTTINMPLVKTPMIAPTKIYDSVPTLTPDEAAQMVADAIVYRPKRIATRLGVFAQVLHALAPKMGEIIMNTGYRMFPDSPAAAGSKSGEKPKVSTEQVAFAAIMRGIYW
Consider B3, for which, in series [6], the Km is recorded as 8 mM and the kcat came to 0.1 s⁻¹.

B4: Short chain alcohol dehydrogenase-like protein from Hahella chejuensis, SEQ ID NO: 11 (Uniprot Q2SCE0) (Hahella chejuensis KCTC 2396) (protein)
chain: MNYFVTGGTGFIGRFLVPKLLKRGGTVYLLVREASLPKLDELRERWNASDEQVVGVVGDLAQPMLGVSEKDAAMLRGKVGHFFHLAAIYDMQASAESQEQANIEGTRNAVKLADSLKAACFHHVSSIAAAGLYRGIFREDMFEEAEKLDNPYLRTKHESEKVVREECQTPWRVYRPGMVVGHSKTGEIDKIDGPYYFFKLIQKLRSALPQWMPTVGLEGGRINIVPVDFVVDAMDHIAHAEGEDGKCFHLTDPDPYKVGEILNIFAEAGHAPKMAMRIDARMFGFIPPMIRQGIARLPPVQRMKNAVLNDLGIPDEVMSFINYPTRFDNRETERLLKGTAIAVPRLQDYSPAIWDYWERHLDPDLHKDRTLRGAVEGRVCVITGATSGIGLSAARKLAEAGAKVVIAARTLEKLQEVKKELEELGGEVYEYSVDLSDLEDCDRFVANVLKDLGHVDVLVNNAGRSIRRSIQHAFDRFHDFERTMQLNYFGSLRLIMGFAPSMLERRRGHIVNISSIGVLTNAPRFSAYVASKAALDAFSRCAAAEFSDKNVTFTTINMPLVRTPMISPTKIYDSVPTLTPEEAADLVAEAIIHRPKRIATRLGVFAQVLHSMAPKFSEIIMNTGFKMFPDSSAATGGKDGEKPKVSTEQVAFAAIMRGIHW
On to B4, for which, in series [6], the Km came out at 5 mM and the kcat was found to be 0.07 s⁻¹.

(Values after patent US9850504B2, “Method for the enzymatic production of 3-buten-2-one” (Scientist of Fortune S.A., priority 2013, dated 2017).)
